From patent US6566080 (NEW ENGLAND MEDICAL CENTER HOSPITALS, dated 2003)
Ends that are not written are not given here.

T1: wild-type rat CCK-A receptor (rat, UniProt P30551 1-444)
T1 sequence: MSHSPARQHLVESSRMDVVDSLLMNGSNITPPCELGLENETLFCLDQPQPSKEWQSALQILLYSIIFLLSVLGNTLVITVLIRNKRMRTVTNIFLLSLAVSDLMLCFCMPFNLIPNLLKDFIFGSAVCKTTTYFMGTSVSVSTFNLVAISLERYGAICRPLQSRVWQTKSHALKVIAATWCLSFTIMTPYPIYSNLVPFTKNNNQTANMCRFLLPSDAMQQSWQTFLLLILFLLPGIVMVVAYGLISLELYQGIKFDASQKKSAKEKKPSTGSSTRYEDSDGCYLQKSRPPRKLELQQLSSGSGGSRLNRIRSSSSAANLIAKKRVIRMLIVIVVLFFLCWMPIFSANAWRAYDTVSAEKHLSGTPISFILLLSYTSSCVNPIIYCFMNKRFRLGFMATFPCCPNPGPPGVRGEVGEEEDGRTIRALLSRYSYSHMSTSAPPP

T2: wild-type human CCK-B/gastrin receptor (human, UniProt P32239 1-447)
T2 sequence: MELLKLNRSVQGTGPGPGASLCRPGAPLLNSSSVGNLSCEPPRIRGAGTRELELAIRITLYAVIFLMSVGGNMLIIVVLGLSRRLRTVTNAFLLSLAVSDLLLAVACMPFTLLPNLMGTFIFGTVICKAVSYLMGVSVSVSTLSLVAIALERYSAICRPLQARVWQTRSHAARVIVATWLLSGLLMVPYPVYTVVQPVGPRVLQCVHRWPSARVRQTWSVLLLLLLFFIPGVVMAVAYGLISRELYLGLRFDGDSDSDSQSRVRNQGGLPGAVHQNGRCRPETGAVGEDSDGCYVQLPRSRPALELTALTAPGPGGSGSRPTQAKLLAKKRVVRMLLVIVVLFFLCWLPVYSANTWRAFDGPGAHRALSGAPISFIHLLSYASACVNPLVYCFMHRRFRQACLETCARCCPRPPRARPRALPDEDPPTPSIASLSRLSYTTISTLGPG

T3: constitutively active human CCK-B/gastrin receptor mutant MH162 (^325L→E) (human, UniProt P32239 1-447)
T3 sequence: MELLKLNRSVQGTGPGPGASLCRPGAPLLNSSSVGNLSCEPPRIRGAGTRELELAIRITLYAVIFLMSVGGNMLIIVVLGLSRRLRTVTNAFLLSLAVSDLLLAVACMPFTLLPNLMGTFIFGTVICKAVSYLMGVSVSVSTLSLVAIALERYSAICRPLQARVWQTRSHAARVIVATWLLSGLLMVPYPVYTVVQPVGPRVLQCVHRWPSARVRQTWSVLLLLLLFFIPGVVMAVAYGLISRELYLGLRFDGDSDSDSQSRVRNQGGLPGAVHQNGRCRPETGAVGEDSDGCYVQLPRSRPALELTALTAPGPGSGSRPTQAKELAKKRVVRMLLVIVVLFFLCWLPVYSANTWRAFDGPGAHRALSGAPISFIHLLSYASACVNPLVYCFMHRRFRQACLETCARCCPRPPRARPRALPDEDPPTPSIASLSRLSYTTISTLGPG


Key:
[1] = target: T1, wild-type rat CCK-A receptor; experiment: cell-based or functional assay
[2] = target: T2, wild-type human CCK-B/gastrin receptor; experiment: cell-based or functional assay
[3] = target: T3, constitutively active human …; experiment: cell-based or functional assay
[4] = target: T2, wild-type human CCK-B/gastrin receptor; experiment: ^125I-CCK-8 competition binding on transfected COS-7 cells
[5] = target: T3, constitutively active human …; experiment: as above
[6] = target: T2, wild-type human CCK-B/gastrin receptor; experiment: ^125I-CCK-8 competition binding on COS-7 cells transfected with hCCK-B-pcDNAI
Procedure: (§1) COS-7 cells (1.5 ×10^6) were plated in 10-cm culture dishes (Nunc) and grown in Dulbecco's modified Eagle's medium containing 10% fetal calf serum in a 5% CO_2, 95% air incubator at 37° C. After an overnight incubation, cells were transfected (Pacholczyk et al., *Nature* 350:350–354, 1991) with 5–7 μg of a pcDNA I expression vector containing hCCKB (HCCKB-pcDNA I). Twenty-four hours after transfection cells were split into 24-well dishes (2 ×10^4 cells/well) (Costar). After an additional 24 hours, competition binding experiments were performed in Hank's buffer supplemented with 25 mM phenylmethylsulfonyl fluoride (PMSF). […] Equilibrium binding occurred after incubation for 80 min. at 37° C. Cell monolayers were then washed three times, hydrolyzed in 1 N NaOH, and the amount of radioactivity to the receptor was quantified. […] All binding experiments were repeated three to five times.
(§2) The competition data were analyzed using computer software which is specifically designed for the purpose of radioligand binding assays (Inplot 4.0, GraphPad, San Diego, Calif.). Analyses of competition and saturation binding data can also be performed using computerized non-linear curve fitting (McPherson, G. A., *J Pharmacol Methods*, 14:213–28, 1985).

[7] = target: T3, constitutively active human …; experiment: ^125I-CCK-8 competition binding; Ki at wild-type receptor over Ki at MH162
Procedure: as §1, §2

CCK-8s stimulated (% human basal) inositol phosphate production [1] [% human basal]	Signaling potencies of tested ligands, IC50 [2] [nm]	Signaling potencies of tested ligands, IC50 [3] [nm]	Signaling potencies, Ratio (Wild-type/Mutant) [3]	Ki [4] [nM]	Ki [5] [nM]	IC50 [6] [nM]	Ratio (Wild-type/Mutant) of Ki [7]	Binder
684								DYMGWMDF (peptide, UniProt P06307 96-103, looked up, not fully specified (residue 2, C-terminus)) [sulfated CCK-8 (CCK-8s)]
	0.24	0.2	1.2	1.35	0.8	0.94	1.69	QGPWLEEEEEAYGWMDF (peptide, UniProt P01350 76-92, looked up, not fully specified (residue 1, C-terminus), domain: gastrin-17) [Gastrin I (unsulphated gastrin-17)]
